The values below come from paper PMC9518701 (2022).

The target of assay [1] is SARS-CoV-2 spike protein receptor binding domain (RBD) (SARS-CoV-2, UniProt P0DTC2 319-541).
For assay [2], the target named is human neonatal Fc receptor (FcRn) (human, UniProt P55899 24-365). Briefly: SPR; pH 6.0. A general note: Surface plasmon resonance follows binding to a sensor surface in real time, without labels.

Residue numbers refer to the chain shown, from its start. Names and notes keep the numbering of the source. Where only a bound is given, the exact number is not on record here.

human neonatal Fc receptor (FcRn), sequence (P55899 24-297, chain 1 of 2): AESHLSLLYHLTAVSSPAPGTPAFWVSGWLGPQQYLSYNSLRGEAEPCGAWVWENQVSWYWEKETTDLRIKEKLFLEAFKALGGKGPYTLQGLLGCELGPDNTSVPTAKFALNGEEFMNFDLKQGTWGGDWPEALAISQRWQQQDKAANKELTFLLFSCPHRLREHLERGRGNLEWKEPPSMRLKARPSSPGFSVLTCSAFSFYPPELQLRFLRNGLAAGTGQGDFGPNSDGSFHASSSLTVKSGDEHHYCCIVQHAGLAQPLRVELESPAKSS
human neonatal Fc receptor (FcRn), sequence (chain, as listed by the source, chain 2 of 2): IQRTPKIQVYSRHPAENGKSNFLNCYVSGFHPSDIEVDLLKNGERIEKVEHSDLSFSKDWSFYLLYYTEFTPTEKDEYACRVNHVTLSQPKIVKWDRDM

B1: romlusevimab (BRII-198) (antibody)
chain 1: QVQLVQSGSELKKPGASVKVSCKASGYTFTTYVMNWVRQAPGQGLEWMGWINTNTGNPTYAQGFTGRFVFSLDTSVSTASLQISSLKAEDTAVYYCSSEITTLGGMDVWGQGTTVTVSS
chain 2: SYVLTQPPSVSVAPGKTARITCGGNNIGSKSVHWYQQKPGQAPVLVIYYDSDRPSGIPERFSGSNSGNTATLTISGVEAGDEADYYCQVWDSISDHRVFGGGTKLTVL
Turning to B1, in assay [1], the half-maximal inhibitory concentration (IC50) (as a rule, the concentration at which inhibition is half-maximal) was > 200 nM.

B2: P2B-1G5 (precursor of romlusevimab) (antibody)
chain 1: B1 chain 1 with S98C
chain 2: B1 chain 2
modifications: soluble extracellular FCGRT with beta-2-microglobulin assumed by convention (subunits and limits not given); assayed at pH 6.0
Consider B2, for which the dissociation constant Kd (in general, the concentration at which binding is half-saturated) in assay [2] was 2.51 nM.
